Experimental data as given in the domain aggregation screens of Martell et al. (2025).

experiment: soluble fraction after stress (log2 fold change); higher = more stays soluble; pooled small domains, quantitative proteomics; settings: stress: 50 degC
In short: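 Pooled custom libraries of small protein domains were each held under stress at 50°C. The read-out, high-throughput quantitative proteomics, tracked how much of each protein stayed soluble. This is reported as a base-two log fold change used to indicate aggregation propensity. Higher values mean more protein remains in solution.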

Sequence	soluble fraction (log2)
HMYLLPVTSTELKGNYPNPFNPETTISFDLKDAERVNLSIYNLKGQLVRTLVNSDLPIGRHRLIWDGNDS	-0.603
HMVVTRVKAIDVVNIRKSDSETADKLGKAAVGDEFDLLEKKGNGWSKISYEGGEAYIKSEFLEPSE	0.145
HMVAMGQRVVPLTHLSIDDVRRLLESTYGKDSGIEVTKPGTAAKGVIVTAPRTELDGIVALVKQA	0.0987
HMTNVLSEQESKLLERMNKAGLNAEITVKKAAQILNLSESAARNVLNRLVGKGYLTVDTSRLPFLFQR	-0.0793
HMDAQNLQDQLFGFLKANPTQAYPAQTLADGLRLDDANAFTKVVQALAALERGGKVKVNEEGAFQYDAEK	0.0478
HMIGDNNELFQKAQLTPREKEVALLLLQGETNSDIAKILYVGLSTVKKHISSIFEKTKVKSRTEFISKVR	-0.803
HMIIMVNLYQIWDKEVQGLDSVGAKPEQIEARRQAIAAHFESKARQAGMSSKDIYATLDNFDTYSRQKTS	-2.28
HMRDPVDKDNYLGDWDKNKTYPAGYVMTFGDKNYLALQEVPAGTKPGATDPDPFWVLDTGKTLKD	-0.0888
HMSLGSNISRLRAEKHLSQGDLAEALDVSRQSVSKWETDGSVPDLDKLVKLSRIFGVTLDELVTGTP	0.0174
HMLERPLFTPEQYGRFRGKEARIRLSNPVEGRKTLTGSIVEATEERIVVFVEEEEREVTVPFQWIKSGNL	-0.435
HMFGNTGETSGTGVAFTRSPVDGENKIFGEFLVNAQGEDVVAGIRTPQPISEMEQAFPEVYSKFESVAEIL	0.0862
HMKTPRKVFTVLIRNTEYDVYDIDGKEHQGYNDTPKTWWLYHSERLPEGMIPPIDSDSWKPYSVGT	-0.831
HMRAFTPSEAQVAHARRVMEAFWQHQREGHGAFALDGKMVDAPIVKAAARVLARAGLQDPNHPIHLA	-0.0227
HMSMPTITLQHYKRGSHYYASIIETFRDPVTRKNSSRTLEALGDISEKMKEDPNYLQSLKDRVKALRSD	-0.656
HMNKETYIDALERKLWDRLDPDQLRDIISYYKDYFAMEAAKGISEEETIRKLGDPALLAKSILAAE	-0.335
HMDTIVVAARSIQARQTLTESDLRVEEQEIGAASDKYYTDIAEAVGLVSSRRLSPGQPILRTM	-0.28
HMSGYAIVNNQPGRTLNLRNSPSQSNNIIGQIPSGTRLQLISRGETWSEVIFQTTRGFVMSSFLRFET	-0.809
HMKVPDVQYMNKDSAIEALTANELKYTIVEAENENVAAGVVISQSVERDSQVAPGTSVELVVSTG	0.0357
HMGRPTLEQLLDRAQAMGVPRERYAAYADRRWGRGWRVNPHGRGRAWDELDRYRNDPAGYLDKIEVELNQL	-0.101
HMQKVPDAFKAEQVQTLITRLGVSRAELARTLDVSLSTVNKWASGAVEPKGSALVLLKVLWMHGFKAL	-2.14
HMENEIFVPKVFMDWYNKVDKSIKVFKAFNLIEKETDPRLKEWVEDNQDEFAKIWLGQLLPVV	-0.0598
HMKVEIVRVVKDIHIGDEITKDMVRTVEVGGYNLPDGVVKDTATVIGRFASADMVPGDYIISSKIADAP	-0.121
HMTIRIPEEEYLTRAKRAAQMTAERGLDALFLFGSEGDFQNVRYFTSVTPIWERLGVVITASGKAAMLTGP	-0.0521
HMLAVPADFAEKLQSLRSQLASDDLDASDAFGRLQPFIKALYPAQLEALRKAVDDFDFVEATRLIDQLPQ	-0.232
HMKRTLLLEGRTIPYELTQKPVKNINIRVHADGSVRVSAGPWVSPEAVDAVLRQRSAFLLRALDQFAAQAP	-0.996
HMQYTQKTMYINDSYVNLRKSASTSSDIIMVVELNTKLTVIGEDGDWYKVKTSSGNAYVLKTLLSNEKKET	-0.108
HMTKDEIIIQSIIDAAKKLMQQYGLNKTTMEDIAKEAGKGKSTLYHYFKSKEEIFDQVINQEID	-0.0722
HMKGEKVTKIELSNFIKFLINDLENKGFFNPPEKKDSMIDNIYSIYNKMTLTKKELNMLWGMHKKLK	-1.44

Sequence	soluble fraction (log2)
HMDRSIGDIIAELRDLSAEQVERVLAHQRETGVRFGEAAVALGYASKEDVLFALSQQFHYPYAPEE	-0.146
HMASAAHYEGVKTEGESDNDVITRVLTATGVTAEKDDIFVVKSLIADGKYSYTAYVYDGSVWAAMD	-0.0797
HMIKLTVRQQEILDLIARSIDQTGFPPTRAEIAAELGFKSVNAAEEHLQALARKGVIEMVPGISRGIRLVQ	-0.395
HMKSLAQELVDALGDRIRDGRLKVGDKLPSEAAIEAQYGVSRTVVREAISRLQAAGLVVTRHGIGTFIVGI	-0.804
HMSQIAENNQKYVGTIQKVLVEGTSKNNDDMLTGRTDSNKVVIFEGDKKLIGNMVELKIVSEHMWYLKGEL	-0.0348
HMEKKGTVVIATVKGDIHDIGKNIVKVLLENYGFDVIDLGKDVPPEAVVEAVQQSGARLVGLSALM	-0.594
HMLEEIDYPEEQLQLLFAWSRDHVQSTPPGLPVVDDHVWHILVRGYGATDQRTEAFALLASYAGFP	-0.0919
HMEPELSVDMKPLDGLLLAIKKELQAAQMYTRLARASADAEQKMVFEQLANMEKGHKARLEDIYT	-0.0279
HMFSSVSVPAELSNQRFDKVVAELTPDLSRSKIKQLILLGKVLLNGEVTPPKQKVETGDEIEIFYTRQIE	-0.63
HMVAGPDEPLSDREQGVLDLLAEGLSNKAISKQLGISVATVKSHLSNIYGKLQAENRMQAVARARELGLM	≥ 0.62
HMDKSNEVLMNHYRKQEINQAKKRLEEEKMSIIQVLQLTNKEVITTDELLEALYISKEQLLDEIINTTQ	-0.0889
HMRKIEDVLRLHAQGMSTRRIALATGVGKTTVIEYLRRAAVAGLSWPLPEGLDEEALERRVFPPPP	-1.45
HMINNINKLPETQFIKLFANIFENSQFIAVALYKKKGDGFSDFKDLINKIMDIFENTTKEKKLKILNA	-0.0982
HMAPVVAILTRQLPLPQAQQLAGQTALVRVVKGGPGNEAELEFAGQNIQVKLPPGRQLTAGEMVTVAFALS	0.0876
HMFPDRLRELRKGRNITLETLAEEMNKHLEPGQKPNTAAQIGNWERGDRSPSYIEVRKLADFFNVSMDFL	-0.636
HMAPEKLVHELVGLSLRAGNLDLLAATLSAHKTVLSKESTAEYVKAGLAIEPNHLPLRVLAEQDLGWS	-0.57
HMVNSADLAAKPFIDLLVSTRQQLREAKQYDLADTIRDELTNHGITIEDKPQGSEWQYEFNPNS	0.112
HMETMSGTVKWFNTQKGYGFITGDDGAEYFAHQTQIKMDGFRTLDAGDIVEFDVRSEEKGLAAVNIVP	-0.0597
HMTGMEKFLTIPSIRESTAAFEREYLIHYLDENAWQVSKTAAAIGIERTTLYKKMKQLGIVPIEE	-2.07
HMREEMYGLIGFITTSEVTDTFGQMEIKLENEPEMRINVRTNPGESLARGDAAKIISFNNSNGTFLVELTK	-0.474
HMDLPATVPNLEGLTEVTARNKLTVAGLSLGEVKEVESDKEKGTVVGQSIAYGKRVTKGTKVDIEISSGK	0.0361
HMWSAREQVVNSLREAILTSELKAGERLVLSDLSARLGVSVTPIREALQSLEREGLVQLMPHQEAVVV	0.155
HMDREQLELYVGEVRVLQVGELRRIAIGNGKVLQASALDRGQLLLIPEAPGQSVLYLWTRDGTERHLSISV	-0.203
HMSTIKEKIIQYLDFKGISKYDFYQKTGVSNGVLSQKSGMSEDNIMRFLSYYDDINTDWLFYGKGEMIKT	-1.13
HMANTAKVNVDTANLRETADENSKILKQLSLNDNLEVVEETGDWYKVKNSNVTGYVRKDLVTVEN	0.371
HMADYSMDDNAWNAKKADIDEWFEANPDFSANKAITDGLFSIGDSQVEMRKRYWASIAGVFAGLPNSPIG	-0.152
HMNVEKLREMYPEGTKIILQEMQGESRMAKGLKGTVTHVDDAGQIHMKWENGSSLVLNVEVDTFKKIE	0.0915
